Reference: patent US20230250154A1

Key:
ADAMTS4 (human) = ADAMTS4 (human) (UniProt O75173); assay: cell-based or functional assay
ADAMTS5 (human) = ADAMTS5 (human) (UniProt Q9UNA0); assay: cell-based or functional assay
ADAMTS5 (human), sequence (Q9UNA0 262-622 limits assumed): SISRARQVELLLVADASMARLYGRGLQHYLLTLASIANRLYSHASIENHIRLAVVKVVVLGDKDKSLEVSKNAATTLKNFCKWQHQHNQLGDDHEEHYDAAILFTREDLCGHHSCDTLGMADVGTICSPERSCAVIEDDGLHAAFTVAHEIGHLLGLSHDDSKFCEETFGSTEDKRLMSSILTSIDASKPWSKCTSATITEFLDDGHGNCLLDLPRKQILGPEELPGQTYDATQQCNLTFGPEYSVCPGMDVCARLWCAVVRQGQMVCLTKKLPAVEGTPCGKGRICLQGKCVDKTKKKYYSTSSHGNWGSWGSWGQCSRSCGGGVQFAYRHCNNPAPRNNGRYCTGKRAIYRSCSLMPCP

ADAMTS4 (human), sequence (O75173 213-685 limits assumed): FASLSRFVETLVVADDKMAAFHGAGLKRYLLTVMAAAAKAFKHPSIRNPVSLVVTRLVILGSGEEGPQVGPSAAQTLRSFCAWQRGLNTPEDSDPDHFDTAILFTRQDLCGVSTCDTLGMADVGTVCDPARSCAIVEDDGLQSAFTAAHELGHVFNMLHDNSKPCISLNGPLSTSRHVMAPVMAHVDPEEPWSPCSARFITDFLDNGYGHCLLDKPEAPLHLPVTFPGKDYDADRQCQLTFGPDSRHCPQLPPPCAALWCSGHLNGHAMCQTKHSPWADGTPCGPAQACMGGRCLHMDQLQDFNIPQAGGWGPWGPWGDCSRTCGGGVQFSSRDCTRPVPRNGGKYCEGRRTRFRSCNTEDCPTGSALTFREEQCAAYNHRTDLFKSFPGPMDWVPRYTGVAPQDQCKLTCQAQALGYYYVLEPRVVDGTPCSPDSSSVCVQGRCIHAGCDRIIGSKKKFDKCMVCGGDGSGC

An IC50 needed to inhibit cartilage catabolism (ADAMTS4 (human)) of 3 µg/mL, an IC50, inhibition of cartilage catabolism in bovine cartilage explants (ADAMTS5 (human)) of 7000 µg/mL and an IC50 needed to inhibit cartilage catabolism (ADAMTS5 (human)) of 7 µg/mL were found for “purified human A2M (from UniProt P01023 24-1474)” in this work. For the same substance, the Maximum inhibition of cartilage catabolism in bovine cartilage explants (ADAMTS5 (human)) was 90%.
